Results: US12162911B2, “Pulmonary administration of pyocins for treating bacterial respiratory infections” (priority 2014, dated 2024)

B1: Pyocin SD2: S-type pyocin, SEQ ID NO: 7; targeting domain binds LPS common polysaccharide antigen (protein, listed as Pseudomonas aeruginosa)
chain: MAVNDYEPGSMVITHVQGGGRDIIQYIPARSSYGTPPFVPPGPSPYVGTGMQEYRKLRSTLDKSHSELKKNLKNETLKEVDELKSEAGLPGKAVSANDIRDEKSIVDALMDAKAKSLKAIEDRPANLYTASDFPQKSESMYQSQLLASRKFYGEFLDRHMSELAKAYSADIYKAQIAILKQTSQELENKARSLEAEAQRAAAEVEADYKARKANVEKKVQSELDQAGNALPQLTNPTPEQWLERATQLVTQAIANKKKLQTANNALIAKAPNALEKQKATYNADLLVDEIASLQARLDKLNAETARRKEIARQAAIRAANTYAMPANGSVVATAAGRGLIQVAQGAASLAQAISDAIAVLGRVLASAPSVMAVGFASLTYSSRTAEQWQDQTPDSVRYALGMDANKLGLTSSVNLSAVAKAGGTVDLPMRLTNEARGNTTTLSVVSTDGVSVPKAAPVRMAAYNATTGLYEVTVPSTTAEAPPLILTWTPASPPGNQNPSSTTPVIPKPVPVYEGAALTPLKTGPESYPGMLLDLNDLIVIFPADSGVKPVYVMLSSPLDSGIFTRRQLQKKFDSHKYDFGLGEKSANNGTLAEFRDKILEHLADPATVEKGTYHSEVNSKVHYNARTNIVVIIGEDGMFVSGWRIEPGTDQYNFYMKNEVL
B2: Pyocin L1: lectin-like pyocin, SEQ ID NO: 24; receptor believed to be common polysaccharide antigen of LPS (protein, listed as Pseudomonas aeruginosa)
chain: MASSLAPRQVIRDGQFITSPNGKYKLVMQADGNLVLYEDGTKPIWNTTPVGPGAKAVMEFNLNLYNKAGQVAWSSNVYTAYLFEEFKDEAYLNLQDDGDFGIFSDEAKWGSIVLSRPEVGVKNKIIPTGTVMVPGTEYINGNYRLAFQGDGNLVIYQINPQVVIWATYTMGADRAVVQEDGNFVIYKGTTALWHTHTATGMPAYLKFTNTGKLFLSQPTLLWTLKRGSLSKPPKVIPGQHGPLDTTPIWSWPHDYP
B3: Pyocin AP41: S-type pyocin, SEQ ID NO: 18; effector has DNase activity (protein, listed as Pseudomonas aeruginosa)
chain: MSDVFDLGSMTTVATATGQYSFYTPPPPTPIPYLTYIARPGINKFDLPEGAKIKDLIKRYQYIGSQIPAAIMIRGVQEEIKKSTNTALANVGAIVDGELAYLASQKKEKLNPAEATPLQMASAEKAAAVELLASKQKELADARTIANAFFGYDPLTVNYVNVMNEIYGRREDKDFSFDNWSKSYSAAQKIRLIEAKISVLNSRSSALDGKVAELTRLQRLEDAQHAAEAARQTEAERLAQEQRQAEARRQAEEARRQAEAQRQAELQRLAEAEAKRVAEAEKKRQDEINARLQAIVVSESEAKRIEEIYKRLEEQDKISNPTVTTPPAVDAGSRVDDALAHTGTRVTSGGETGATGGSGRDVDTGTGQGGITARPVDVGSVSIPDRRDPKIPDQPRRDLGSLVPTFPDFPTFPSFPGVGVPAAAKPLIPAGGGAASVSRTLKTAVDLLSVARKTPGAMLGQVAAVVATMAVSSFWPKLNNGERQASFAIPVAELSPPLAVDWQAIAAAKGTVDLPYRLKTLNVDGSIQIIAVPTEPGSAAVPVRALTLDSASGTYKYTTTGPGGGTILVTPDTPPGQIDPSSSTPAVPRGPLIMPGTLLIPKEPQIESYPELDQREFNDGIYVYPEDSGIPPLYIVYRDPRDEPGVATGNGQPVTGNWLAGASQGDGVPIPSQIADQLRGKEFKSWRDFREQFWMAVSKDPSALENLSPSNRYFVSQGLAPYAVPEEHLGSKEKFEIHHVVPLESGGALYNIDNLVIVTPKRHSEIHKELKLKRKEK

What was measured:
[1] = tested on: P. aeruginosa P8; assay: Mouse model of acute lung infection, P. aeruginosa P8; type: in vivo, Pseudomonas aeruginosa; settings: for Lowest active concentration tested: lowest concentration tested with which the treated mice survived to 24 h; for Corresponding molarity: molarity of lowest active concentration tested; for reduction of bacterial load in lung: 3 mg ml^−1 intranasal 1 h post-infection, culled 4.5 h post-infection (FIG. 1c); for reduction of bacterial numbers in lung: C57/BL6 mice, 3 mg ml^−1 intranasal 6 h pre-infection, culled 4 h post-infection (FIG. 1a)
Description: Study design. […] For all experiments 6 week-old, female, murine pathogen free C57/BL6 mice weighing 15-21 g were used (Charles Rivers Laboratories, UK). All mice received food and water ad libitum and were housed in groups during the experiments. Power calculations were used to predetermine sample size (n=6, for all treatment experiments). Mice were culled when required as determined by a scoring system or culled at the pre-determined 24 h time point. All mice, including outliers were included in the statistical analysis. Experiments were either carried out once only or repeated once (defined for each experiment).
(§1) Model of acute lung infection. Female C57/BL6 mice were inoculated intranasally with 25 μl of bacterial culture containing approximately 10^7 CFU of the selected P. aeruginosa strain^36. Antibiotic treatments were administered at either 6 h pre-infection or 1 h post-infection and were administered only once. Pyocins or tobramycin dissolved in PBS were administered via intranasal administration as described above. Two different end-points were used in these experiments. In order to determine a reduction in the bacterial load of the lungs compared to the untreated controls, all mice in the experiment were culled by carbon dioxide asphyxiation at the same time; 4-6 h post infection. To determine if mice could survive infection after pyocin or tobramycin treatment, mice were monitored closely, culled by carbon dioxide asphyxiation when required as determined by a scoring system or culled at the pre-determined 24 h time point. Uninfected mice, treated with pyocins, were used as controls in the first series of experiments in order to ensure no adverse effects from pyocin treatment. These controls were stopped in later experiments in order to reduce the number of animals used, once it was clear that the pyocins were not harmful. For CFU determination, lungs were removed aseptically and kept on ice in 750 μl of PBS until homogenised. Serial 10-fold dilutions of the homogenised lung were plated on Pseudomonas selective agar (20 g peptone, 1.5 g K2HPO4, 1.5 g MgSO4·7H2O, 10 ml glycerol, 15 g agar, 0.025 g Irgasan per litre) and incubated at 37° C. for 24 h and then room temperature for 24 h before the colonies were counted.

[2] = tested on: P. aeruginosa PA01; assay: Mouse model of acute lung infection, P. aeruginosa PA01; type: in vivo, Pseudomonas aeruginosa
Description: as §1, with “Uninfected mice, treated with pyocins, were used as controls in the first series of experiments in order to ensure no adverse effects from pyocin treatment. These controls were stopped in later experiments in order to reduce the number of animals used, once it was clear that the pyocins were not harmful. For CFU determination, lungs were removed aseptically and kept on ice in 750 μl of PBS until homogenised.” left out
A similar experiment was performed using pyocin SD2. […] The bacterial load of the lungs was determined and control mice had approx 2×10^5 CFU/lung, 6 h after infection.

[3] = tested on: P8AP41T; assay: Mouse model of acute lung infection, AP41 tolerant strain P8AP41T; type: in vivo, Pseudomonas aeruginosa; settings: 3 mg ml^−1 1 h post-infection; for bacterial numbers in lung homogenates: 24 h (FIG. 3b); for survival: endpoint 24 h, PBS controls culled 6 h post-infection (FIG. 3b)
Description: as §1
(§2) In order to determine if pyocin tolerance or resistance was acquired upon pyocin treatment in vivo, viable bacteria recovered from mice that survived infection to the 24 h end-point, in all experiments discussed in this work, were tested for pyocin susceptibility. From these experiments no pyocin resistant colonies were isolated. […] Importantly, sensitivity to pyocins S5 and L1 were unaffected in vitro in this pyocin AP41-tolerant strain (FIG. 3a) and this was also shown to be the case in vivo when mice were infected with P8AP41T.

[4] = tested on: P. aeruginosa E2; assay: Mouse model of acute lung infection, P. aeruginosa E2; type: in vivo, Pseudomonas aeruginosa; settings: for survival / protection: pyocin 3 mg ml^−1, endpoint 24 h, infected controls culled at 5.5 h
Description: as §1
(§3) Since strains of P. aeruginosa are phenotypically diverse, we tested the efficacy of the pyocins against three additional isolates: P. aeruginosa P17 and P. aeruginosa P5 (mucoid), both from cystic fibrosis patients and P. aeruginosa E2, an environmental isolate. Pyocin S2 was not active against P. aeruginosa P5 or P. aeruginosa E2 in vitro therefore was not used to treat these strains in vivo and similarly pyocin L1 was not used against P. aeruginosa P17. […] Lung homogenates from P. aeruginosa E2-infected AP41-treated mice contained high levels of viable bacteria, reduced only 10-fold relative to control mice (Table 1). […] Thus, pyocins show strong efficacy against diverse strains of P. aeruginosa with pyocin S5 treatment displaying the largest effect on reducing bacterial load.

[5] = tested on: P. aeruginosa P5 (mucoid); assay: Mouse model of acute lung infection, P. aeruginosa P5; type: in vivo, Pseudomonas aeruginosa; settings: for survival / protection: pyocin 3 mg ml^−1, endpoint 24 h, infected controls culled at 4.5 h; for bacterial count in lung, P5: pyocin 3 mg ml^−1, treated mice survived to 24 h, no treatment 1.7 × 10^5 CFU/lung
Description: as §1, §3

[6] = tested on: P8AP41T; assay: Pyocin sensitivity in vitro (spot tests) of strain P8AP41T; type: cell-based, Pseudomonas aeruginosa
Description: Pyocin sensitivity assays: overlay spot plate method. Soft agar overlay spot plates were performed using the method of ^35. 150 μl of test strain culture at OD600 nm=0.6 was added to 6 ml of 0.8% soft agar and poured over an LB agar plate. 5 μl of bacteriocin, lung homogenate or blood at varying concentrations was spotted onto the plates and incubated for 24 h at 37° C.
as §2

[7] = tested on: P. aeruginosa P17; assay: Mouse model of acute lung infection, P. aeruginosa P17; type: in vivo, Pseudomonas aeruginosa
Description: as §1, §3

[8] = tested on: collection of diverse environmental and clinical isolates; assay: Activity against a collection of diverse environmental and clinical isolates; type: cell-based, Pseudomonas aeruginosa

| Molecule | Lowest active concentration tested [1] [µg/mL] | Corresponding molarity [1] [µM] | bacterial numbers in lung homogenates [3] | survival [3] | reduction of bacterial load in lung [1] | reduction of bacterial numbers in lung [1] [fold] | survival / protection [4] | survival / protection [5] | bacterial count in lung, P5 [5] | also measured |
| --- | --- | --- | --- | --- | --- | --- | --- | --- | --- | --- |
| NC[C@H]1O[C@H](O[C@H]2[C@H](O)[C@@H](O[C@H]3O[C@H](CO)[C@@H](O)[C@H](N)[C@H]3O)[C@H](N)C[C@@H]2N)[C@H](N)C[C@@H]1O [Tobramycin, tobramycin, reference compound] | 300 | 641 | – | – | – | – | – | – | – | survival ([1]; 300 μg ml^−1, 1 h post-infection (FIG. 2b)): survived to 24 h; bacterial counts compared to the PBS controls ([1]; 300 μg ml^−1, 24 h post-infection (FIG. 2b)): significantly reduced the bacterial counts |
| B1 | – | – | – | – | – | – | – | – | – | bacterial load of the lungs ([2]; 3 mg ml^−1 1 h post-infection, 24 h post-infection, control approx 2×10^5 CFU/lung at 6 h): no colonies or 10; survival ([2]; C57/BL6 mice, 3 mg ml^−1 intranasal 1 h post-infection, endpoint 24 h (FIG. 7)): survived to the endpoint of the experiment at 24 h |
| B2 | 30 | 1.06 | significantly reduced bacterial numbers | survived until the endpoint of the experiment at 24 h | approximately 20 fold | ~1500 | survived until the 24 h endpoint | survived until the 24 h endpoint | 40 CFU/lung | mice culled at 6 h post-infection due to the severity of symptoms ([1]; 30 μg ml^−1, six mice): three of the six; survival ([1]; 300 μg ml^−1, endpoint 24 h post-infection): survived until the endpoint of the experiment at 24 h post-infection; bacterial count in lung, E2 ([4]; pyocin 3 mg ml^−1, treated mice survived to 24 h, no treatment 1.5 × 10^5 CFU/lung): No colonies; sensitivity of the pyocin AP41-tolerant strain in vitro ([6]; spot tests, FIG. 3a): unaffected |
| B3 | 30 | 0.319 | significantly reduced bacterial numbers | survived until the endpoint of the experiment at 24 h | ~130 fold | ~650 | failed to afford protection | successful | No colonies | survival ([1]; 300 μg ml^−1 and 30 μg ml^−1 (both concentrations), endpoint 24 h post-infection): survived until the endpoint of the experiment at 24 h post-infection; bacterial count in lung, P17 ([7]; 1 mouse that coughed up the treatment, culled at 4 h post-infection): ^+1 mouse coughed up AP41 treatment and was culled at 4 h post-infection, bacterial count 1.3 × 10^5 CFU/lung.; survival / protection ([7]; pyocin 3 mg ml^−1, endpoint 24 h, infected controls culled at 4 h): five out of six; bacterial count in lung, P17 ([7]; pyocin 3 mg ml^−1, treated mice survived to 24 h, no treatment 4.4 × 10^5 CFU/lung): No colonies; reduction of viable bacteria in lung homogenates relative to control mice ([4]; pyocin 3 mg ml^−1, culled at 5.5 h post-infection): 10 fold; bacterial count in lung, E2 ([4]; pyocin 3 mg ml^−1, mice culled at same time as control (5.5 h post-infection)): 1.3 × 10^4 CFU/lung; strains against which active [8]: 87%; increased tolerance of isolate P8AP41T ([6]; single isolate from pyocin AP41 (3 mg ml^−1 post-infection) treated bacteria): approximately 1000 fold; susceptibility of P8AP41T during infection ([6]; strain recovered from untreated control mice (P8AP41T*), FIG. 3a): remained tolerant |
